Reference: paper PMC2504713 (Journal of Leukocyte Biology, 2008)
Each block holds one molecule with its values, some of them ahead of it.

Legend:
[1] = molecular target: Recombinant rat Nrp1, conjugated to an Fc fragment of human IgG1 (Nrp1-Fc) (rat) (UniProt Q9QWJ9); assay: ELISA
[2] = molecular target: T1, LAP C-terminal peptide QSSRHRR; assay: ELISA
T1 peptide: Ac-QSSRHRR-OH

EC50 [1]: 0.338 nM
Molecule: LAP-TGF-β1 (the latent form of TGF-β1) (from UniProt P01137 30-278) (complex)

IC50 [1]: 0.89 nM
Kd [1]: 0.04 nM
Molecule: Active (mature) TGF-β1 (ligand)

EC50 [2]: 4.18 ± 0.99 nM
B1: Recombinant rat Nrp1, conjugated to an Fc fragment of human IgG1 (Nrp1-Fc) (Fc fusion, UniProt Q9QWJ9 22-855, looked up)
chain: FRSDKCGGTIKIENPGYLTSPGYPHSYHPSEKCEWLIQAPEPYQRIMINFNPHFDLEDRDCKYDYVEVIDGENEGGRLWGKFCGKIAPSPVVSSGPFLFIKFVSDYETHGAGFSIRYEIFKRGPECSQNYTAPTGVIKSPGFPEKYPNSLECTYIIFAPKMSEIILEFESFDLEQDSNPPGGVFCRYDRLEIWDGFPEVGPHIGRYCGQKTPGRIRSSSGILSMVFYTDSAIAKEGFSANYSVLQSSISEDFKCMEALGMESGEIHSDQITASSQYGTNWSVERSRLNYPENGWTPGEDSYREWIQVDLGLLRFVTAVGTQGAISKETKKKYYVKTYRVDISSNGEDWITLKEGNKAIIFQGNTNPTDVVFGVFPKPLITRFVRIKPASWETGISMRFEVYGCKITDYPCSGMLGMVSGLISDSQITASNQGDRNWMPENIRLVTSRTGWALPPSPHPYINEWLQVDLGDEKIVRGVIIQGGKHRENKVFMRKFKIAYSNNGSDWKMIMDDSKRKAKSFEGNNNYDTPELRAFTPLSTRFIRIYPERATHSGLGLRMELLGCEVEVPTAGPTTPNGNPVDECDDDQANCHSGTGDDFQLTGGTTVLATEKPTIIDSTIQSEFPTYGFNCEFGWGSHKTFCHWEHDSHAQLRWRVLTSKTGPIQDHTGDGNFIYSQADENQKGKVARLVSPVVYSQSSAHCMTFWYHMSGSHVGTLRVKLHYQKPEEYDQLVWMVVGHQGDHWKEGRVLLHKSLKLYQVIFEGEIGKGNLGGIAVDDISINNHIPQEDCAKPTDLDKKNTEIKIDETGSTPGYEEGKGDKNISRKPGNVLKTLDP
